Results as given in article PMC12239582, “The cyclic di-GMP receptor YcgR links the second messenger with the putrescine quorum sensing system in modulation of Dickeya oryzae motility” (mBio, 2025).

Biological target: T1, SpeA-His (Dickeya oryzae EC1, UniProt A0AB39IRQ5 1-658)
T1 sequence (looked up): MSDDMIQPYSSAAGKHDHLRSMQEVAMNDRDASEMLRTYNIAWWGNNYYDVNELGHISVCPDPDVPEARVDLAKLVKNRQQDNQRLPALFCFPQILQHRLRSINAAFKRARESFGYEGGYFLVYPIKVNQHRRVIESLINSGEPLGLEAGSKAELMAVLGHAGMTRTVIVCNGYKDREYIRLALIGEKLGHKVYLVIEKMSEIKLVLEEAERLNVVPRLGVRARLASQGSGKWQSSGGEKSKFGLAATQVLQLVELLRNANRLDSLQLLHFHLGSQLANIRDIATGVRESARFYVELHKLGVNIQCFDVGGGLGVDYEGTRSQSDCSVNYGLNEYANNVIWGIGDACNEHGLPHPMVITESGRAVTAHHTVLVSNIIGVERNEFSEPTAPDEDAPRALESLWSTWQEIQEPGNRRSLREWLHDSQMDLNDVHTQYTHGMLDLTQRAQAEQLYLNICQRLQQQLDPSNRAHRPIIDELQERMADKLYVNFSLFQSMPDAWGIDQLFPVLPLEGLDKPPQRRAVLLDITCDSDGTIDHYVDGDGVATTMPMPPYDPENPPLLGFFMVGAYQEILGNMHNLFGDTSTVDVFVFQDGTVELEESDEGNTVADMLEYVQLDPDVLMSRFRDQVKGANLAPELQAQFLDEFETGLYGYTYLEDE
Experiment: cell-based or functional assay

B1: GST-YcgR (natural protein)
chain: MDVVDDNMKEQYARRGKMAICATLRGLQKQDATVMVYHTHGQFISKILEVDSDEEEFLFDLGALERENSRALFAGELGFVAETAGAKVEFRTTIIRTVEHDNLPAFCAAIPDVLYYIQRRNFFRINSPAWPPMVCRGELPDSTYFEFNLKDLSLGGLCMYTDDQGLAVLFEPGMILKNVDVDLASYGQFCLDMEFVNHATTKVVDSKGEVKQIERLSFKFPTLSAVQERGLQQVITELELDQNEKRKRLR
- yield of agmatine made by SpeA in vitro (OPA fluorescence) with YcgR added at a 2:1 ratio, against the reaction without YcgR; 75% increase at 1 h to about 160% at 2 h: ~160%
